B1: Galactose/lactose metabolism regulatory protein GAL80 (Saccharomyces cerevisiae), P04387 (parent)
chain: MDYNKRSSVSTVPNAAPIRVGFVGLNAAKGWAIKTHYPAILQLSSQFQITALYSPKIETSIATIQRLKLSNATAFPTLESFASSSTIDMIVIAIQVASHYEVVMPLLEFSKNNPNLKYLFVEWALACSLDQAESIYKAAAERGVQTIISLQGRKSPYILRAKELISQGYIGDINSIEIAGNGGWYGYERPVKSPKYIYEIGNGVDLVTTTFGHTIDILQYMTSSYFSRINAMVFNNIPEQELIDERGNRLGQRVPKTVPDHLLFQGTLLNGNVPVSCSFKGGKPTKKFTKNLVIDIHGTKGDLKLEGDAGFAEISNLVLYYSGTRANDFPLANGQQAPLDPGYDAGKEIMEVYHLRNYNAIVGNIHRLYQSISDFHFNTKKIPELPSQFVMQGFDFEGFPTLMDALILHRLIESVYKSNMMGSTLNVSNISHYSL
partner: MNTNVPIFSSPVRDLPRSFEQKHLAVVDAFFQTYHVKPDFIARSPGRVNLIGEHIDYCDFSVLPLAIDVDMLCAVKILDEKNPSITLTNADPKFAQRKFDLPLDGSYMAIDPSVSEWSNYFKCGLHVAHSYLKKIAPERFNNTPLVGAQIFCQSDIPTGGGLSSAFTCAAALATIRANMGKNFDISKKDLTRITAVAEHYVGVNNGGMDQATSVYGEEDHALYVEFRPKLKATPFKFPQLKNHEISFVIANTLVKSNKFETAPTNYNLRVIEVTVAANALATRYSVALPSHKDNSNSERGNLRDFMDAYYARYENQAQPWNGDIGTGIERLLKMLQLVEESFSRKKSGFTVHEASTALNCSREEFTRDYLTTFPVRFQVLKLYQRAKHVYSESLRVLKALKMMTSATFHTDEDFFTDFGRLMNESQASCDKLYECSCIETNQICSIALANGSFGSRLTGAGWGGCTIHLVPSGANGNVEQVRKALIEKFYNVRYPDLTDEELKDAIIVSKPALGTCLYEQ

Variants of: B1
Conditions: with gal3_yeast GAL3, P13045
For MDYNKRSSVSTVPNAAPIRVGFVGLNAAKGWAIKTHYPAILQLSSQFQITALYSPKIETSIATIQRLKLSNATAFPTLESFASSSTIDMIVIAIQVASHYEVVMPLLEFSKNNPNLKYLFVEWALACSLDQAESIYKAAAERGVQTIISLQGRKSPYILRAKELISQGYIGDINSIEIAGNGGWYGYERPVKSPKYIYEIGNGVDLVTTTFGHTIDILQYMTSSYFSRINAMVFNNIPEQELIDERGNRLGQRVPKTVPDHLLFQGTLLNGNVPVSCSFKGGKPTKKFTKNLVIDIHGTKGDLKLEGDAGFAEISNLVLYYSGTRANDFPLANGQQAPLDPGYDAGKEIMKVYHLRNYNAIVGNIHRLYQSISDFHFNTKKIPELPSQFVMQGFDFEGFPTLMDALILHRLIESVYKSNMMGSTLNVSNISHYSL [E351K], the “effect of a mutation on the interaction” value was “decreasing interaction strength”.
